Measurements reported in patent publication US10925971B2, “Methods of treating PRLR positive breast cancer” (Regeneron Pharmaceuticals, Inc., priority 2016, dated 2021).
Each block holds one molecule with its values, some of them ahead of it.

Columns and labels:
HEK293 parental cells = experiment: FACS cell surface binding; set-up: species or system human
In short: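 Flow cytometry: 1×10^5 cells/sample; primary Ab 10 μg/ml, 30 min on ice; 2 washes; PE anti-human 2° 10 μg/ml, 30 min on ice. Cells were HEK293 stably expressing HA-tagged PRLR of the given species, or untransfected HEK293. Readout was MFI fold over isotype.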

[1] = tested on: Macaca fascicularis PRLR (mfPRLR.mmh; SEQ ID NO:403); experiment: Surface plasmon resonance (Biacore T200), antibody-capture format; type: binding; details: analyte mfPRLR.mmh
In short: (§1)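 Antibodies (human IgG1 Fc) captured on an anti-human Fc sensor surface; soluble monomeric (.mmh) or dimeric (.mFc) PRLR injected as analyte. ka and kd obtained by fitting to a 1:1 binding model.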

[2] = molecular target: T1, dimeric human PRLR (hPRLR.mFc; SEQ ID NO:402) (Homo sapiens, UniProt P16471); experiment: as above; type: binding; details: analyte hPRLR.mFc
T1 construct: dimeric (hPRLR.mFc)
In short: as §1

[3] = molecular target: T2, monomeric human PRLR (hPRLR.mmh; SEQ ID NO:401) (Homo sapiens, UniProt P16471); experiment: as above; type: binding; details: analyte hPRLR.mmh
T2 construct: soluble monomeric (hPRLR.mmh); mmh (myc-myc-hexahistidine) (C)
In short: as §1

[4] = molecular target: T3, mouse PRLR on HEK293/mPRLR cells (Mus musculus, UniProt Q08501); experiment: FACS cell surface binding
T3 construct: HA; expressed in transfected cells; host or cells: HEK293
T3 sequence (Q08501 20-608): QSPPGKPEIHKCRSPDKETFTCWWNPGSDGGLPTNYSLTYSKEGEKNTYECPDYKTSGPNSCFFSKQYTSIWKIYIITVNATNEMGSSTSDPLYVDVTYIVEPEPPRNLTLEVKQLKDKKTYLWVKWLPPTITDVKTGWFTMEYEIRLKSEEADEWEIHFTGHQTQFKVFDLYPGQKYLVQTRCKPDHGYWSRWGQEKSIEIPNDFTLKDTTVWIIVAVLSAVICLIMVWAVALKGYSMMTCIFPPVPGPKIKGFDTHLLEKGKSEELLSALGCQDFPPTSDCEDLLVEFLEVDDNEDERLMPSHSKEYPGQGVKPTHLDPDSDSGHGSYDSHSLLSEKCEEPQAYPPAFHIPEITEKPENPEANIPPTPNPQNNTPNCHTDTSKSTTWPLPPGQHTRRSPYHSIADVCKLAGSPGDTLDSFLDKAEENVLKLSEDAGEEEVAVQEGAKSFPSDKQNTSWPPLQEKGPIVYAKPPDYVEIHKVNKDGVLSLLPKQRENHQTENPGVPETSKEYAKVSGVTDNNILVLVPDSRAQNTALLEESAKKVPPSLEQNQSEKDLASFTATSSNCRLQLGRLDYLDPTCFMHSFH
In short: (§2)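 HEK293 cells stably transfected with HA-tagged human, cynomolgus or mouse PRLR (G418-selected), or parental HEK293, were stained with 10 μg/ml antibody for 30 min on ice. Binding was then detected with 10 μg/ml PE anti-human secondary for 30 min on ice, and MFI was expressed as fold over isotype control.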

[5] = molecular target: T4, human PRLR on HEK293/hPRLR cells (Homo sapiens, UniProt P16471); experiment: FACS cell surface binding
T4 construct: HA; expressed in transfected cells; host or cells: HEK293
T4 sequence (P16471 25-622): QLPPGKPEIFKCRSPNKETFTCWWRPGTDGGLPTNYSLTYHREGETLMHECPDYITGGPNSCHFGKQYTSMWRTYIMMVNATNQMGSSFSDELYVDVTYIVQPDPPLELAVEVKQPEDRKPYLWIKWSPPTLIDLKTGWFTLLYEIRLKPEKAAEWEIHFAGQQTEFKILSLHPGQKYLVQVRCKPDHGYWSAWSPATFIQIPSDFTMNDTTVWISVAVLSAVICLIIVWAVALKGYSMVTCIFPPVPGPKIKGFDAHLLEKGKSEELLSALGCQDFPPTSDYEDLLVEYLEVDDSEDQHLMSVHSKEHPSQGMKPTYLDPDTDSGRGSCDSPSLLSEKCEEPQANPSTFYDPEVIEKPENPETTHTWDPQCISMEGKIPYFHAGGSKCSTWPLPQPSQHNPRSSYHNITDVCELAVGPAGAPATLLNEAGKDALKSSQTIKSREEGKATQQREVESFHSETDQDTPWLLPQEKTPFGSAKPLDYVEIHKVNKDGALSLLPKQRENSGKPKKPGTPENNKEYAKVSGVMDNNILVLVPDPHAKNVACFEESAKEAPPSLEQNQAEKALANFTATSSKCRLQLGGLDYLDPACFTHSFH
In short: as §2

[6] = molecular target: T5, monkey PRLR on HEK293/mfPRLR cells (Macaca fascicularis, UniProt A0A2K5WXK1); experiment: FACS cell surface binding
T5 construct: HA; expressed in transfected cells; host or cells: HEK293
T5 sequence (A0A2K5WXK1 25-619): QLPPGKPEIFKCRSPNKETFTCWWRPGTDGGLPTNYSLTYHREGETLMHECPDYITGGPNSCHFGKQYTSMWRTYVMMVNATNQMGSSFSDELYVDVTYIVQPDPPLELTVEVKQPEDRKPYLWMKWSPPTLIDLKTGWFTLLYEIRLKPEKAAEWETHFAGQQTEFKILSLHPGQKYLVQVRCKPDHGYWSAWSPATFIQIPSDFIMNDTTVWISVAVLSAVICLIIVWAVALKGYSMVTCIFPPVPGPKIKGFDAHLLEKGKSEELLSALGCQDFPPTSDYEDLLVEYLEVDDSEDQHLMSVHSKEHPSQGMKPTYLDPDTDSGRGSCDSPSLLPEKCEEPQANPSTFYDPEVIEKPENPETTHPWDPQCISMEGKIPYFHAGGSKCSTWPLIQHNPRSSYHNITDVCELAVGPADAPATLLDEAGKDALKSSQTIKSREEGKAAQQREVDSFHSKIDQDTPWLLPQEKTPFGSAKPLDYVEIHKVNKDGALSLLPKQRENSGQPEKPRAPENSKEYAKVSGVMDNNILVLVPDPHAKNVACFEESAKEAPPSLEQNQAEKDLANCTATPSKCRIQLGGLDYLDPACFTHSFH
In short: as §2

[7] = molecular target: T6, native PRLR expressing T47D cells (Homo sapiens, UniProt P16471); experiment: FACS cell surface binding
T6 construct: a native PRLR expressing cell line (T47D); endogenous in cells; host or cells: T47D
T6 sequence (P16471 25-622): T4 sequence (P16471 25-622)
In short: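 Flow cytometry on native PRLR-expressing T47D cells, alongside PRLR-overexpressing and parental HEK293 lines. Cells (1×10^5) incubated with antibody at 10 μg/ml, 30 min on ice, then PE anti-human secondary; binding reported as MFI fold over isotype control.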

T1 sequence (P16471 with tags, fused parts or gaps): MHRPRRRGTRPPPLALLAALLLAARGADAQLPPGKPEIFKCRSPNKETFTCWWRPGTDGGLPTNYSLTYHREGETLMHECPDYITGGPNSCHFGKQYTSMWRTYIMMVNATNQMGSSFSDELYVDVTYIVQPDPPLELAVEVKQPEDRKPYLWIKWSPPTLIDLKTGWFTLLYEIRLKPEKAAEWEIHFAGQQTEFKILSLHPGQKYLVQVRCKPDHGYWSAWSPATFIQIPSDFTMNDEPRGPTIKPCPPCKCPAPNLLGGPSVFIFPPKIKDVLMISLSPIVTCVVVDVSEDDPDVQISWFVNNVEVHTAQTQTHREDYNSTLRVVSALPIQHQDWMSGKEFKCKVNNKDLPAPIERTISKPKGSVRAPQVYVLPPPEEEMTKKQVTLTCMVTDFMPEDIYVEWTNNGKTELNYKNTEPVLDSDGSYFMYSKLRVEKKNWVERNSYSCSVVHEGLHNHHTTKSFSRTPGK
T2 sequence (P16471 with tags, fused parts or gaps): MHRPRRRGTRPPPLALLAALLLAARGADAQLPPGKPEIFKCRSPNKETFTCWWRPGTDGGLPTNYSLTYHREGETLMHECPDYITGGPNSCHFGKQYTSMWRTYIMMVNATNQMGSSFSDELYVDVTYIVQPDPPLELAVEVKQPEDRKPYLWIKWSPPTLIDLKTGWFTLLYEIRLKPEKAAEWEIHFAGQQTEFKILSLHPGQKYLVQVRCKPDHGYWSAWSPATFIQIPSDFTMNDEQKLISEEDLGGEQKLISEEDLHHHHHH
Macaca fascicularis PRLR (mfPRLR.mmh; SEQ ID NO:403), sequence (as listed by the source): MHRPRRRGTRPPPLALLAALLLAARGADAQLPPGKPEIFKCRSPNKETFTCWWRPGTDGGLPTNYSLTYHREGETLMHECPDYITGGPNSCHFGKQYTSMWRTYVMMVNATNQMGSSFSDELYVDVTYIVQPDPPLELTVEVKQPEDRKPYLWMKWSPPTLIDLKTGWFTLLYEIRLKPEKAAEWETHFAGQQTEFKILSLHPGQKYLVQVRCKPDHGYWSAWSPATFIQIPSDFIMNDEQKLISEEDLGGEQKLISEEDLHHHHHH

kd ([1]; 25° C.): 0.00123 s⁻¹
kd ([1]; 37° C.): 0.00771 s⁻¹
ka ([2]; 25° C.): 675000 M/s
kd ([2]; 25° C.): 0.000109 s⁻¹
ka ([2]; 37° C.): 793000 M/s
kd ([2]; 37° C.): 0.000221 s⁻¹
ka ([3]; 25° C.): 846000 M/s
kd ([3]; 25° C.): 0.000756 s⁻¹
ka ([3]; 37° C.): 951000 M/s
kd ([3]; 37° C.): 0.00441 s⁻¹
FACS Cell Binding [4]: 56 Fold Above Background
FACS Cell Binding [5]: 47 Fold Above Background
FACS Cell Binding [6]: 88 Fold Above Background
FACS Cell Binding [7]: 45 Fold Above Background
B1: H1H6801P: fully human anti-PRLR antibody, human IgG1 Fc; HCVR/LCVR SEQ ID NOs 210/218 (antibody, V domains shown)
VH: QVQLQQSGPGLVKPSQTLSLTCVISGDSVSSNTAWNWVRQSPSRGLEWLGRTYYRSKWYNDYAVSVKSRITINPDTSKNQFSLLMNSVTPEDTAVYYCARVVRGLNYFDYWGQGTLVTVSS
VL: DIVMTQSPDSLAVSLGERATINCKSSQSVLYNSNNKNYLAWYQQKPGQPPKLLIYWSSSRESGVPDRFSGSGSGTDFTLTISGLQAEDVAIYYCQQYSTIPYTFGQGTKLEIK
FACS Cell Binding (HEK293 parental cells): 7 Fold Above Background
ka ([1]; 25° C.): 657000 M/s
ka ([1]; 37° C.): 711000 M/s

kd ([1]; 25° C.): 0.000657 s⁻¹
kd ([1]; 37° C.): 0.00426 s⁻¹
ka ([2]; 25° C.): 451000 M/s
kd ([2]; 25° C.): 8.69e-05 s⁻¹
ka ([2]; 37° C.): 554000 M/s
kd ([2]; 37° C.): 0.000205 s⁻¹
ka ([3]; 25° C.): 453000 M/s
kd ([3]; 25° C.): 0.000634 s⁻¹
ka ([3]; 37° C.): 607000 M/s
kd ([3]; 37° C.): 0.00385 s⁻¹
FACS Cell Binding [4]: 1 Fold Above Background
FACS Cell Binding [5]: 1 Fold Above Background
FACS Cell Binding [6]: 29 Fold Above Background
FACS Cell Binding [7]: 34 Fold Above Background
B2: H1H6804P: fully human anti-PRLR antibody, human IgG1 Fc; HCVR/LCVR SEQ ID NOs 242/250 (antibody, V domains shown)
VH: QVTLKESGPVLVKPTQTLSLTCTVSGFSLSDAGMGVSWIRQPPGKALEWLAHIFSNDGKSYSTSLKSRLTISKDTSKRQVVLTMTNMDPVDTATYYCARIRTGTYSLYLDYWGQGTLVTVSS
VL: DIQMTQSPSSLSASVGDRVTITCRASQSINSYLNWYQQKPGKAPKLLLYFASSLQSGVPSRFSGSGSGTDFTLTISSLQPEDFASYYCQESYSTPWTFGQGTKVEIK
FACS Cell Binding (HEK293 parental cells): 1 Fold Above Background
ka ([1]; 25° C.): 331000 M/s
ka ([1]; 37° C.): 455000 M/s

kd ([1]; 25° C.): 0.000209 s⁻¹
kd ([1]; 37° C.): 0.000636 s⁻¹
ka ([2]; 25° C.): 104000 M/s
kd ([2]; 25° C.): 6.29e-05 s⁻¹
ka ([2]; 37° C.): 134000 M/s
kd ([2]; 37° C.): 6.2e-05 s⁻¹
ka ([3]; 25° C.): 82400 M/s
kd ([3]; 25° C.): 0.000137 s⁻¹
ka ([3]; 37° C.): 129000 M/s
kd ([3]; 37° C.): 0.000364 s⁻¹
FACS Cell Binding [4]: 1 Fold Above Background
FACS Cell Binding [5]: 39 Fold Above Background
FACS Cell Binding [6]: 28 Fold Above Background
FACS Cell Binding [7]: 39 Fold Above Background
B3: H1H6803P: fully human anti-PRLR antibody, human IgG1 Fc; HCVR/LCVR SEQ ID NOs 226/234 (antibody, V domains shown)
VH: EVQLVESGGGVVRPGGSLRLSCAASGFKFDDYGMTWVRHVPGKGLEWVSGINWNGGRTGYTDSVKGRFTISRDNAKNSLYLQMNSLRAEDTALYHCAGARRDAFDIWGQGTMVTVSS
VL: DIQMTQSPSSLSASIGDRVTITCRASQNIIKYLNWYQQNAGKAPKLLIYTASSLQSGVPSRFSGSGSGTDFTLTISSLQPEDFATYYCQQSSSSPYTFGQGTKLEIK
FACS Cell Binding (HEK293 parental cells): 1 Fold Above Background
ka ([1]; 25° C.): 62100 M/s
ka ([1]; 37° C.): 87300 M/s
